According to US20240424125A1 (Zymeworks, published 2024):

How the values were obtained:
[1] = molecular target: T1, recombinant His-tagged human FRα (ACROBiosystems) (human, UniProt P15328 25-233); assay: BLI (Octet RED96): antibody on anti-human IgG Fc capture biosensor, His-tagged hFRα as analyte, 1:1 global fit, mean of n=2
T1 construct: also called hFRα; hFRα antigen; not shown: His tag
Summary of the method: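 Run at 30° C with 1000 rpm shaking in kinetics buffer (PBS pH 7.4, 0.1% BSA, 0.02% Tween 20, 0.05% sodium azide) plus 0.06% Tween 20, sometimes 1% BSA. Reference-subtracted curves globally fitted to a 1:1 model, giving kon, koff and KD.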

human FRα on cells [2] = molecular target: T2, human FRα on cells (human, UniProt P15328 25-234); assay: apparent Kd, flow cytometry on JEG-3 cells (endogenous FRα), 24 h at 4°C
T2 construct: Transiently expressed on HEK293-6e, CHO-S or HEK293 microarray cells, or endogenous on JEG-3, HEC-1-A, IGROV-1, OVCAR-3, H2110, KB-HeLa and T-47D cells; also called human folate receptor alpha; FOLR1
Procedure: (§1) Briefly, cells were seeded at 50,000 cells/well in V-bottom 96-well plates and treated with antibody for 24 hours at 4° C. to prevent internalization. […] Following incubation and washing, fluorescence was detected by flow cytometry on a BD LSRFortessa™ Cell Analyzer (BD Biosciences, Franklin Lake, NJ) with 1,000 minimum events collected per well. AF647/APC-A GeoMean (fluorescence signal geometric mean, proportional to anti-Human AF647 binding) in live cell population was plotted using GraphPad Prism Version 9 (GraphPad Software, San Diego, CA).

[3] = molecular target: T1, recombinant His-tagged human FRα …; assay: SPR (Biacore T200): hFRα amine-coupled to CM5 chip at medium-low antigen density, bivalent FSA injected, 1:1 Langmuir fit, mean of n=2
Procedure: (§2) CM5 Series S sensor chip, Biacore™ amine coupling kit (NHS, EDC and 1 M ethanolamine), and 10 mM sodium acetate buffers were purchased from GE Healthcare Life Science (Mississauga, ON, Canada). PBS running buffer with 0.05% Tween20 (PBST) was purchased from Teknova Inc. (Hollister, CA). Recombinant human FRα was purchased from ACRObiosystems (Newark, DE).
(§3) Screening of the variants for binding to hFRα antigen was conducted in two steps: capture of hFRα onto surface, followed by injection of three to five concentrations of variant. The hFRα surface was prepared on a CM5 Series S sensor chip by standard amine coupling methods as described by the manufacturer (GE Healthcare Life Science, Mississauga, ON, Canada). The immobilization of the hFRα was performed using Biacore™ T200 immobilization wizard with an amine coupling method aiming for resonance units (RUs) ranging from 5 to 200 RUs. Using multi-cycle kinetics, three to five concentrations of a two-fold dilution series of samples starting at 300 nM with a blank buffer control were injected at 50 uL/min for 180s with a 600s dissociation phase, resulting in a set of sensorgrams with a buffer blank reference. The hFRα surface was regenerated to prepare for the next injection cycle by one pulse of 10 mM glycine/HCl pH 1.5 for 30s at 30 uL/min. Blank-subtracted sensorgrams were analyzed using Biacore™ T200 Evaluation Software v3.0. The blank-subtracted sensorgrams were then fit to the 1:1 Langmuir binding model.

human FRα on cells [4] = molecular target: T2, human FRα on cells; assay: apparent Kd, flow cytometry, CHO-S cells transiently expressing human FRα (same experiment as Table 15.1, more digits)
Procedure: Briefly, CHO-S cells were transfected for −24 hours to transiently express human or cynomolgus monkey FRα, 1 ug DNA per 1 million cells. Following transfection, cells were seeded at 50,000 cells/well in V-bottom 96-well plates and treated with antibody for 24 hours at 4° C. to prevent internalization. […] Following incubation and washing, fluorescence was detected by flow cytometry on a BD LSRFortessa™ Cell Analyzer (BD Biosciences, Franklin Lake, NJ).

FOLR4 on HEK293-6e cells = molecular target: T3, FOLR4 on HEK293-6e cells (human, UniProt A6ND01 20-228); assay: flow cytometry, HEK293-6e cells transiently expressing the target, 50 nM antibody
T3 construct: whole, on cells; also called human folate receptor delta (FOLR4)
Procedure: (§4) FRα, FOLR2 and FOLR4 binding: Briefly, HEK293-6e cells were transfected for ˜24 hours to transiently express human FRα (Cat. No. 13420), FOLR2 (Cat. No. 13481) and FOLR4 (Cat. No. 13483) (all from GenScript Biotech, Piscataway, NJ), 1 ug DNA per 1 million cells. Following transfection, 50,000 cells were seeded in V-bottom 96-well plates and incubated with 50 nM primary antibody for 45 min under standard culturing conditions. […] Following incubation and washing, fluorescence was detected by flow cytometry on a BD LSRFortessa™ Cell Analyzer (BD Biosciences, Franklin Lake, NJ) with 1,000 minimum events collected per well.
(§5) By flow cytometry, live singlet cell population was gated using FlowJo™ v8 software (RD Biosciences, Franklin Lake, NJ), and AF647 GeoMean and % positive binding was determined in this population for each antibody.

human FRα on cells [5] = molecular target: T2, human FRα on cells; assay: as above
Procedure: as §4, §5

FOLR2 on HEK293-6e cells = molecular target: T4, FOLR2 on HEK293-6e cells (human, UniProt P14207 17-230); assay: as above
T4 construct: whole, on cells; also called human folate receptor beta (FOLR2)
Procedure: as §4, §5

[6] = molecular target: T1, recombinant His-tagged human FRα …; assay: SPR (Biacore T200): hFRα amine-coupled to CM5 chip at high antigen density, bivalent FSA injected, 1:1 Langmuir fit, mean of n=2
Procedure: as §2, §3

human FRα on cells [7] = molecular target: T2, human FRα on cells; assay: apparent Kd, flow cytometry on HEC-1-A cells (endogenous FRα), 24 h at 4°C
Procedure: as §1

T2 sequence (P15328 25-234 limits assumed): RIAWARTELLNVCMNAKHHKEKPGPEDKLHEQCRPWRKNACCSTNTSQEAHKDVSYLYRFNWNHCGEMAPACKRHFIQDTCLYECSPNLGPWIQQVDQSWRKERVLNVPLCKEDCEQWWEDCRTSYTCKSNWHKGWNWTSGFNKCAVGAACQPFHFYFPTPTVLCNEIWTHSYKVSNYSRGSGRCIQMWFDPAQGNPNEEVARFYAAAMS
T1 sequence (P15328 25-233 limits assumed): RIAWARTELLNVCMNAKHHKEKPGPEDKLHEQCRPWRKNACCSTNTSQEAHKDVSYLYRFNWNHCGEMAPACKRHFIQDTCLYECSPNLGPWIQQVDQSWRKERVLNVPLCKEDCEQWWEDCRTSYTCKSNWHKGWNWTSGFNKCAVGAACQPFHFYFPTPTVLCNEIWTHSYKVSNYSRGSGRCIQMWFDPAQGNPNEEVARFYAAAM
T4 sequence (P14207 17-230): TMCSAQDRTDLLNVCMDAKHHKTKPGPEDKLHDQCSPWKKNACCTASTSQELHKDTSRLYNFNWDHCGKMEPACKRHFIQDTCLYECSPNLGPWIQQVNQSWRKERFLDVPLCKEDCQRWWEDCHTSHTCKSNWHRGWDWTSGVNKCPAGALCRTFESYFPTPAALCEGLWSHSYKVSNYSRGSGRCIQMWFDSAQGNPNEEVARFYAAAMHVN
T3 sequence (A6ND01 20-228): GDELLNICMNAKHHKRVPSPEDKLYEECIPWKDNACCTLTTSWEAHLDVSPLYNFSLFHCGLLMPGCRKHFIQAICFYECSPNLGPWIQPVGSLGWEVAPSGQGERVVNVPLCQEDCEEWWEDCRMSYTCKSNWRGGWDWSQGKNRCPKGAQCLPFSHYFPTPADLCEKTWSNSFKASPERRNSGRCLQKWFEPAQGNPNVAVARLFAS

B1: v23924 (antibody, human IgG1, kappa, V domains shown)
VH: QSVKESEGGLFKPTDTLTLTCTVSGFSLSSYGVSWVRQAPGNGLEWIGAVNSGGSAYYANWAKSRSTITRNTNLFTVTLKMTSLAVADTATYFCARSGSGYPMDYLAIWGPGTLVTVSS
VL: AYDMTQTPASVEVAVGGTVTIKCQASQSIGDWLAWYQQKPGQPPRLLIYEASTLASGVPSRFSGSGSGTQFTLTISGVECADAATYYCQQGYGRSNVDNIFGGGTEVVVKR
notes: Rabbit-human chimeric full-size antibody, human IgG1/kappa, HomoFc; also called variant v23924; parental chimeric anti-FRα antibody
[1]
  Kd: 27 nM
Human FRα on cells [2]
  Kd: 0.32 nM
[3]
  Kd: 2.29 nM
Human FRα on cells [4]
  Kd: 0.0839 nM
FOLR4 on HEK293-6e cells
  % Positive Binding, singlet population: 0%
  AF647/DyLight650 GeoMean, singlet population: 27
Human FRα on cells [5]
  % Positive Binding, singlet population: 71%
  AF647/DyLight650 GeoMean, singlet population: 7660
FOLR2 on HEK293-6e cells
  % Positive Binding, singlet population: 0%
  AF647/DyLight650 GeoMean, singlet population: 7
[6]
  Kd: 0.278 nM
Human FRα on cells [7]
  Kd: 0.05 nM
